Reference: the Human Domainome abundance scans (Beltran et al. 2025)
± gives the uncertainty stated by the source.

B1: Histone H1t, residues 44 to 112; numbered along this chain, P22492 (parent)
chain: VSKLITEALSVSQERVGMSLVALKKALAAAGYDVEKNNSRIKLSLKSLVNKGILVQTRGTGASGSFKLS

Variants of: B1
Assay: abundance fitness (aPCA) (normalised: wild type 0, dead -1); higher = more abundant; growth selection in yeast, the domain comes from the species named
Conditions: Homo sapiens

Abundance fitness: each site, then its substitutions
Q13: L -0.33 ± 0.033, M -0.377 ± 0.046, N -0.206 ± 0.053, R -0.093 ± 0.062, S -0.242 ± 0.044, T -0.128 ± 0.057, V -0.342 ± 0.069, W -0.471 ± 0.091, Y -0.212 ± 0.042
E14: A -0.456 ± 0.19, C -0.838 ± 0.46, D -0.271 ± 0.36, F -0.852 ± 0.039, H -0.373 ± 0.087, I -0.712 ± 0.055, K -0.449 ± 0.083, L -0.71 ± 0.033, M -0.649 ± 0.051, N -0.508 ± 0.084, Q -0.456 ± 0.087, R -0.61 ± 0.23, S -0.274 ± 0.05, T -0.4 ± 0.071, V -0.651 ± 0.13, Y -0.67 ± 0.056
R15: D 0.096 ± 0.13, E 0.084 ± 0.091, F -0.258 ± 0.052, G -0.15 ± 0.48, H -0.061 ± 0.13, I -0.312 ± 0.076, K 0.234 ± 0.069, L -0.501 ± 0.046, M -0.364 ± 0.053, N 0.063 ± 0.081, P -0.163 ± 0.11, Q -0.143 ± 0.24, S -0.089 ± 0.046, T 0.05 ± 0.055, V -0.45 ± 0.1, Y -0.338 ± 0.069
V16: A 0.037 ± 0.23, D 0.347 ± 0.19, F -0.224 ± 0.03, H -0.031 ± 0.051, I -0.058 ± 0.033, K -0.16 ± 0.033, M -0.076 ± 0.031, N 0.042 ± 0.034, P -0.416 ± 0.059, R -0.718 ± 0.39, T -0.024 ± 0.052, Y -0.045 ± 0.033
G17: A -0.07 ± 0.089, C -0.17 ± 0.062, D -0.398 ± 0.12, F -0.465 ± 0.041, H -0.116 ± 0.066, I -0.254 ± 0.047, K 0.157 ± 0.046, L -0.478 ± 0.036, M -0.296 ± 0.048, N 0.015 ± 0.057, P -0.484 ± 0.087, Q -0.075 ± 0.059, R -0.025 ± 0.056, S -0.24 ± 0.043, T -0.134 ± 0.054, V -0.1 ± 0.053, W -0.49 ± 0.095, Y -0.4 ± 0.05
M18: C -0.127 ± 0.062, D -0.359 ± 0.11, E -0.108 ± 0.055, F -0.481 ± 0.082, G -0.129 ± 0.045, I -0.37 ± 0.07, K 0.238 ± 0.051, L -0.077 ± 0.034, N 0.016 ± 0.077, R 0.107 ± 0.072, S 0.009 ± 0.11, T -0.006 ± 0.08, V -0.318 ± 0.039, W -0.374 ± 0.049, Y -0.487 ± 0.076
S19: A -0.205 ± 0.071, C -0.155 ± 0.062, D 0.08 ± 0.08, E -0.558 ± 0.083, F -0.043 ± 0.039, G 0.147 ± 0.061, K -0.021 ± 0.049, L -0.111 ± 0.03, M -0.153 ± 0.039, N -0.088 ± 0.085, P -0.324 ± 0.073, Q -0.171 ± 0.054, R -0.224 ± 0.055, T -0.056 ± 0.051, V -0.11 ± 0.042, W -0.145 ± 0.051, Y -0.381 ± 0.048
L20: A -0.234 ± 0.054, C -0.205 ± 0.038, D -0.346 ± 0.073, E -0.046 ± 0.069, F 0.013 ± 0.032, G -0.412 ± 0.045, H -0.465 ± 0.057, I -0.026 ± 0.036, K -0.239 ± 0.052, M -0.022 ± 0.041, N -0.724 ± 0.061, P -0.841 ± 0.06, Q -0.5 ± 0.065, R -0.537 ± 0.045, S -0.561 ± 0.036, T -0.351 ± 0.046, V -0.048 ± 0.036, W -0.008 ± 0.038, Y 0.01 ± 0.035
V21: A 0.091 ± 0.1, C -0.164 ± 0.11, D 0 ± 0.093, E 0.038 ± 0.14, F -0.142 ± 0.026, H 0.061 ± 0.044, I -0.067 ± 0.028, L -0.062 ± 0.027, M -0.037 ± 0.029, N 0.123 ± 0.03, P -0.199 ± 0.071, Q 0.181 ± 0.055, R 0.113 ± 0.082, S 0.018 ± 0.04, W -0.16 ± 0.096, Y -0.207 ± 0.028
A22: C -0.034 ± 0.18, D -0.118 ± 0.34, E -0.801 ± 0.36, F -0.413 ± 0.07, G -0.45 ± 0.3, H -0.158 ± 0.23, I -0.699 ± 0.11, K -0.192 ± 0.24, L -0.393 ± 0.059, N -0.262 ± 0.33, Q -0.003 ± 0.16, S 0.051 ± 0.098, T -0.305 ± 0.22, V -0.358 ± 0.11, W -0.101 ± 0.3, Y -0.034 ± 0.1
L23: A -0.384 ± 0.094, C -0.363 ± 0.077, D -1.22 ± 0.27, E -0.47 ± 0.14, F -0.197 ± 0.038, G -1.27 ± 0.2, H -1.05 ± 0.093, I -0.087 ± 0.05, K -1.12 ± 0.088, M -0.226 ± 0.038, N -0.95 ± 0.13, P -0.885 ± 0.099, R -0.942 ± 0.089, S -1 ± 0.06, V -0.076 ± 0.051, W -0.541 ± 0.061, Y -0.933 ± 0.088
K24: C -0.579 ± 0.091, D -1.33 ± 0.21, E -0.363 ± 0.054, F -0.494 ± 0.08, G -0.485 ± 0.071, H -0.694 ± 0.12, I -0.738 ± 0.079, L -0.418 ± 0.039, M -0.295 ± 0.046, N -0.359 ± 0.056, P -1.22 ± 0.12, R -0.161 ± 0.045, S -0.656 ± 0.058, T -0.267 ± 0.047, W -0.533 ± 0.064, Y -0.164 ± 0.069
K25: A -0.225 ± 0.048, D -0.158 ± 0.058, E -0.085 ± 0.048, F -0.892 ± 0.064, G -0.231 ± 0.04, H -0.325 ± 0.065, I -0.697 ± 0.058, L -0.862 ± 0.042, M -0.785 ± 0.057, N -0.171 ± 0.061, P -1.34 ± 0.21, S -0.23 ± 0.046, T -0.352 ± 0.062, V -0.627 ± 0.032, W -0.602 ± 0.064, Y -0.827 ± 0.077
A26: C -0.14 ± 0.064, D -0.954 ± 0.23, E -0.252 ± 0.21, F -0.172 ± 0.03, H -0.167 ± 0.06, I -0.171 ± 0.035, K 0.07 ± 0.049, L -0.138 ± 0.028, M -0.033 ± 0.035, N -0.401 ± 0.051, P -0.906 ± 0.19, Q -0.381 ± 0.073, R -0.415 ± 0.11, S -0.121 ± 0.043, T -0.106 ± 0.062, V -0.064 ± 0.075
L27: A -0.506 ± 0.092, C -0.394 ± 0.078, D -0.677 ± 0.091, F -0.221 ± 0.036, G -0.681 ± 0.1, H -0.838 ± 0.09, I -0.116 ± 0.039, K -0.999 ± 0.063, M -0.159 ± 0.038, N -0.906 ± 0.069, P -1.06 ± 0.1, Q -1.06 ± 0.11, R -1.12 ± 0.11, S -0.746 ± 0.046, T -0.696 ± 0.059, V -0.202 ± 0.037, W -0.371 ± 0.063
A28: C -0.175 ± 0.035, D -0.258 ± 0.061, E -0.197 ± 0.054, F -0.231 ± 0.033, G -0.106 ± 0.035, I -0.059 ± 0.041, L -0.087 ± 0.031, M -0.089 ± 0.036, N -0.18 ± 0.066, R 0.003 ± 0.045, S -0.114 ± 0.053, V -0.098 ± 0.032, W -0.327 ± 0.032, Y -0.124 ± 0.04
A29: C -0.088 ± 0.042, D -0.085 ± 0.053, E 0.066 ± 0.053, F -0.276 ± 0.027, G -0.223 ± 0.048, H -0.236 ± 0.056, I -0.248 ± 0.03, K 0.153 ± 0.03, L -0.255 ± 0.027, M -0.097 ± 0.03, P -0.491 ± 0.087, Q -0.081 ± 0.065, R 0.002 ± 0.044, S -0.039 ± 0.037, T -0.04 ± 0.052, V -0.215 ± 0.038, W -0.323 ± 0.059
A30: C -0.136 ± 0.059, D -0.328 ± 0.093, E -0.404 ± 0.067, F -0.368 ± 0.055, G -0.162 ± 0.045, H -0.312 ± 0.09, I -0.318 ± 0.087, L -0.224 ± 0.032, M 0.021 ± 0.043, N -0.271 ± 0.1, P -0.364 ± 0.052, Q -0.137 ± 0.053, R 0.051 ± 0.038, S -0.09 ± 0.04, T -0.048 ± 0.049, V -0.158 ± 0.036, W -0.15 ± 0.041, Y -0.266 ± 0.07
G31: A -0.202 ± 0.16, C -0.27 ± 0.22, D -0.752 ± 0.22, E -0.89 ± 0.3, F -0.285 ± 0.067, H -0.366 ± 0.082, I -0.316 ± 0.063, L -0.297 ± 0.031, M -0.224 ± 0.036, N -0.357 ± 0.054, P -0.434 ± 0.048, Q -0.268 ± 0.039, R -0.306 ± 0.12, S -0.264 ± 0.042, T -0.259 ± 0.042, V -0.149 ± 0.1, W -0.387 ± 0.2, Y -0.066 ± 0.076
Y32: C -0.391 ± 0.089, F -0.072 ± 0.041, H -0.052 ± 0.063, I 0.022 ± 0.049, K 0.064 ± 0.054, L 0.032 ± 0.028, N -0.114 ± 0.072, P -0.228 ± 0.034, Q -0.121 ± 0.048, R -0.055 ± 0.055, S -0.14 ± 0.031, T -0.193 ± 0.036, W -0.116 ± 0.061
D33: A 0.063 ± 0.035, E 0.2 ± 0.074, F 0.243 ± 0.059, H 0.143 ± 0.078, I -0.121 ± 0.075, K -0.119 ± 0.097, L -0.034 ± 0.033, M 0.115 ± 0.064, N -0.254 ± 0.13, P -0.214 ± 0.037, Q 0.042 ± 0.052, R 0.036 ± 0.065, S -0.021 ± 0.042, T -0.025 ± 0.056, V 0.029 ± 0.034, W 0.259 ± 0.098, Y 0.144 ± 0.078
V34: A -0.171 ± 0.036
